# In patent publication US20220306744A1 (CRESCENDO BIOLOGICS, published 2022):
# B1: 1.92b-4GS-1.39a (other)
# chain: EVQLVESGGGLVKPGGSLRLSCAASGFTFSDESMTWMRQAPGKGLEWVSYISSGGGVKFYADSVKGRFTISRDNAKNSLYLQMNSLRAEDTAVYYCAREAPLRLGESPHDAFDISGQGTMVTVSSGGGGSGGGGSGGGGSGGGGSEVQLVESGGGLVQPGRSLRLSCAASGFTFDDYALHWVRQAPGKDLEWVSGISWNGGSYGYADSVKGRFTISRDNAKNSLYLQMNSLRAEDTALYYCVREKGPGLTGSTADYYGLDAWGQGTMVTVSS
# notes: Biparatopic VH-linker-VH; built from its parts here because it is not clear whether 1112 is the protein or the nucleic acid
# B2: 1.92b-4GS-1.62a (other)
# chain: EVQLVESGGGLVKPGGSLRLSCAASGFTFSDESMTWMRQAPGKGLEWVSYISSGGGVKFYADSVKGRFTISRDNAKNSLYLQMNSLRAEDTAVYYCAREAPLRLGESPHDAFDISGQGTMVTVSSGGGGSGGGGSGGGGSGGGGSEVQLVESGGGVVRPGGSLRLSCAASGFTFDDYAMSWVRQAPGKGLEWVSGITWNAGSTGYADSVKGRFTISRDNAKNSLYLQMNSLRAEDTALYYCVRDKYSYAWSYDDFDIWGQGTMVTVSS
# notes: Biparatopic VH-linker-VH; also called 1.92-4GS-1.62a; 1.92b-4gs-2.12a
# Legend:
# [1] = biological target: T1, human PD-1 expressed on cells (CHO TREX human PD1 cell line, full-length human PD-1 sequence) (human, UniProt Q15116 21-288); experiment: FMAT epitope competition, CHO human PD1 cells; competitor Epitope 1 (1.1-Strep tagged protein)
# T1 construct: Also used for human PD-1 on Jurkat reporter cells, on PathHunter cells and on PHA-stimulated human CD4+ T cells; also called CHO human PD1 cells; CHO human PD-1 cells
# T1 sequence (Q15116 21-288): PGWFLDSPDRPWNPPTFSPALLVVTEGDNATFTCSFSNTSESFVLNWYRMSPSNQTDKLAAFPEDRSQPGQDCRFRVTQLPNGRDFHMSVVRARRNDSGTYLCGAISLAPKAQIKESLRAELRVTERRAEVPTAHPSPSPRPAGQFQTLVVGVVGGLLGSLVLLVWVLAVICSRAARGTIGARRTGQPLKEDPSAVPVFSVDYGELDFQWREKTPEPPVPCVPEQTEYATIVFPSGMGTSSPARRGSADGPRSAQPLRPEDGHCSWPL
# Experimental: For the epitope competition assay reagents were prepared in FMAT assay buffer.
# Multivalent molecules 1.92b-4GS-1.39a and 1.92b-4gs-1.62a were tested in the epitope competition assay as described above. 1.92b-4GS-1.39a and 1.92b-4gs-1.62 did cross compete with 1.1-Strap tagged and 2.1-Strap tagged proteins for binding to the cells.
# Plates were incubated for a minimum of 1.5 hours at room temperature then fluorescence measured in the FL2 (502 nm-537 nm) and FL5 (677-800 nm) channels on the Mirrorball plate reader (TTP) following excitation at 488 nm and 640 nm. Data was expressed as a % of the total binding control (i.e. % control) after subtraction of the background signal determined from the non-specific binding control wells.
# [2] = biological target: T1, human PD-1 expressed on cells (CHO TREX …); experiment: epitope competition assay on CHO human PD1 cells (labelled VH 1.51a, 1.57b or 1.1a, not specified) after 0 days in human serum
# [3] = biological target: T1, human PD-1 expressed on cells (CHO TREX …); experiment: epitope competition assay on CHO human PD1 cells (labelled VH not specified) after 0 days in human serum
Binder,EC50 [1] [nM],IC50 [2] [nM],IC50 [3] [nM]
B1,1.1,0.9,–
B2,1,–,1.4
